T1: RCD1-SRO-TAF4 (RST) domain from Radical-Induced Cell Death1, RCD1-RST_(499-572) (UniProt Q8RY59 499-572)
T1 sequence (looked up): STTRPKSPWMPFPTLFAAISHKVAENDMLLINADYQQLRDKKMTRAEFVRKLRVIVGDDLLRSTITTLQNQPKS


Key:
[1] = target: RCD1-SRO-TAF4 (RST) domain from Radical-Induced Cell Death1, RCD1-RST_(499-572) (UniProt Q8RY59); experiment: ITC
[2] = target: T1, RCD1-SRO-TAF4 (RST) domain from …; experiment: ITC

Molecule | binding result [2] | other results
D-ANAC013_(254-274) peptide, D-enantiomer (from UniProt F4IED2 254-274) |  | fold difference in Kd against L-ANAC013 [1]: 500 fold
D-DREB2A_(255-272) peptide, D-enantiomer (from UniProt O82132 255-272) |  | fold difference in Kd against L-DREB2A [1]: 72 fold
D-ANAC046_(319-338) peptide, D-enantiomer (from UniProt Q9SQQ6 319-338) |  | fold difference in Kd against L-ANAC046 [1]: 15 fold
SKSACDGLDDLIFWEDLYTS (peptide, UniProt Q9SQQ6 319-338, looked up) [L-ANAC046_(319-338) peptide] | binds | 
NLEEDMYLEINDLMEPEPEPT (peptide, UniProt F4IED2 254-274, looked up) [L-ANAC013_(254-274) peptide] | binds | 
SSDMFDVDELLRDLNGDD (peptide, UniProt O82132 255-272, looked up) [L-DREB2A_(255-272) peptide] | binds | 

From doi:10.1101/2024.02.23.581681 (bioRxiv, 2024)
